# Data reported in IntAct's records for PubMed 11259609.
# B1: Aryl hydrocarbon receptor (Homo sapiens), P35869 (parent)
# chain: MNSSSANITYASRKRRKPVQKTVKPIPAEGIKSNPSKRHRDRLNTELDRLASLLPFPQDVINKLDKLSVLRLSVSYLRAKSFFDVALKSSPTERNGGQDNCRAANFREGLNLQEGEFLLQALNGFVLVVTTDALVFYASSTIQDYLGFQQSDVIHQSVYELIHTEDRAEFQRQLHWALNPSQCTESGQGIEEATGLPQTVVCYNPDQIPPENSPLMERCFICRLRCLLDNSSGFLAMNFQGKLKYLHGQKKKGKDGSILPPQLALFAIATPLQPPSILEIRTKNFIFRTKHKLDFTPIGCDAKGRIVLGYTEAELCTRGSGYQFIHAADMLYCAESHIRMIKTGESGMIVFRLLTKNNRWTWVQSNARLLYKNGRPDYIIVTQRPLTDEEGTEHLRKRNTKLPFMFTTGEAVLYEATNPFPAIMDPLPLRTKNGTSGKDSATTSTLSKDSLNPSSLLAAMMQQDESIYLYPASSTSSTAPFENNFFNESMNECRNWQDNTAPMGNDTILKHEQIDQPQDVNSFAGGHPGLFQDSKNSDLYSIMKNLGIDFEDIRHMQNEKFFRNDFSGEVDFRDIDLTDEILTYVQDSLSKSPFIPSDYQQQQSLALNSSCMVQEHLHLEQQQQHHQKQVVVEPQQQLCQKMKHMQVNGMFENWNSNQFVPFNCPQQDPQQYNVFTDLHGISQEFPYKSEMDSMPYTQNFISCNQPVLPQHSKCTELDYPMGSFEPSPYPTTSSLEDFVTCLQLPENQKHGLNPQSAIITPQTCYAGAVSMYQCQPEPQHTHVGQMQYNPVLPGQQAFLNKFQNGVLNETYPAELNNINNTQTTTHLQPLHHPSEARPFPDLTSSGFL
# partner: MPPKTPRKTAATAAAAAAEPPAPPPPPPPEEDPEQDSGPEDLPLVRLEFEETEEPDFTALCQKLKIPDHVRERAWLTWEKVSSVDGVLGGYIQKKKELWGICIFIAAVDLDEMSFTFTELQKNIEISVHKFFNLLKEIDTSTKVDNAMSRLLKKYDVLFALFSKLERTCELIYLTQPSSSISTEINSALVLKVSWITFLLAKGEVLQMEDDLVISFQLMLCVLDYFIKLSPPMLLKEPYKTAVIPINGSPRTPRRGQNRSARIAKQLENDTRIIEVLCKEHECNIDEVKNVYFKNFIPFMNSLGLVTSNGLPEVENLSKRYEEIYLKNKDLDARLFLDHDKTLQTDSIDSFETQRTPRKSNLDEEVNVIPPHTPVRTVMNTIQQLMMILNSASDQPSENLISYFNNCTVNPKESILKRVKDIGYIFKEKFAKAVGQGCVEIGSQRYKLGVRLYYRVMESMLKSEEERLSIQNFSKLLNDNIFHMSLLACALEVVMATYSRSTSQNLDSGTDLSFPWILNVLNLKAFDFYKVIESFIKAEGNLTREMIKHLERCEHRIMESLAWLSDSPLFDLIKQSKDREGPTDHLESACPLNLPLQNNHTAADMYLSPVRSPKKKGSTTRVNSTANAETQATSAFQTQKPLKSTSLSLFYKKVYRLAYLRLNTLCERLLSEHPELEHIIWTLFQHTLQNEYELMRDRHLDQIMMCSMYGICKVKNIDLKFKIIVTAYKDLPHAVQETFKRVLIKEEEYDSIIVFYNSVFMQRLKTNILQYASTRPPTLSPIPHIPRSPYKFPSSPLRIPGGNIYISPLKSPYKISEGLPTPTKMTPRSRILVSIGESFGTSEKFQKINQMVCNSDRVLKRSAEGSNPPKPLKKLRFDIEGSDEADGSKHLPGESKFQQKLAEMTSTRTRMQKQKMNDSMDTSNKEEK
# Variants of: B1
# Conditions: with rb_human RB1, P06400
row,Variant,effect of a mutation on the interaction
1,L331A,disrupting interaction strength
2,C333A,disrupting interaction strength
3,E335A,disrupting interaction strength
